Measurements reported in patent US7329737 (DYAX, dated 2008).
Where a chain is given by its changes, count along the chain named.

B1: M0134-B03 (Fab, V domains shown)
VH: EVQLLESGGGLVQPGGSLRLSCAASGFTFSHYSMFWVRQAPGKGLEWVSSIYPSGGQTDYADSVKGRFTISRDNSKNTLYLQMNSLRAEDTAVYYCARRGLLWSFDSWGQGTLVTVSS
VL: AQSALTQPPSASGSPGQSVTISCTGTSSDVGAYNYVSWYQQHPGKAPKLIIYEVNKRPSGVPDRFSASKSGNTASLTVSGLQAEDEADYYCNSYAGSNSLIFGGGTKLTVLG
B2: M0108-D11 (Fab, V domains shown)
VH: EVQLLESGGGLVQPGGSLRLSCAASGFTFSWYVMTWVRQAPGKGLEWVSVIYPSGGATKYADSVKGRFTISRDNSKNTLYLQMNSLRAEDTAVYYCARRGAGGMDVWGQGTTVTVSS
VL: AQSVLTQPASVSGSPGQSITISCTGTNTDVGGYNLVSWYQQHPGKAPKLIIYEVSNRPSGVSNRFSGSKSGNTASLTISGLQAEDEVDYYCGSYTSSSTHVFGSGTKVTVLG
B3: M0138-A03 (Fab, V domains shown)
VH: EVQLLESGGGLVQPGGSLRLSCAASGFTFSFYLMFWVRQAPGKGLEWVSGIYPSGGQTVYADSVKGRFTISRDNSKNTLYLQMNSLRAEDTAVYYCARAIGAGSSFWGQGTLVTVSS
VL: DIQMTQSPSSVSASVGDRVTITCRASQGISSWLAWYQQKPGKAPKLLIYAASSLQSGVPSRFSGSGSGTDFTLTISSLQPEDFATYYCQQANSFPHTFGQGTKLEIKR
B4: M0138-E02 (Fab, V domains shown)
VH: EVQLLESGGGLVQPGGSLRLSCAASGFTFSHYMMHWVRQAPGKGLEWVSGIGPSGGKTPYADSVKGRFTISRDNSKNTLYLQMNSLRAEDTAVYYCARVGVWYGMDVWGQGTTVTVSS
VL: B3 VL with A34V, N92K, S93T, H96L, Q100G, L104V
B5: M0136-D07 (Fab, V domains shown)
VH: EVQLLESGGGLVQPGGSLRLSCAASGFTFSPYKMGWVRQAPGKGLEWVSSIYPSGGVTTYADSVKGRFTISRDNSKNTLYLQMNSLRAEDTAVYYCTKNINLRYDILTGYFDIWGQGTTVTVSS
VL: B3 VL with G28D, S30A, G41E, A43V, S76N, H96F, Q100P, L104V, E105D, I106F
B6: M0136-E12 (Fab, V domains shown)
VH: B4 VH with H31N, M33S, H35Q, G50S, K57R, P59W
VL: DIQMTQSPSSLSASVGDRVTITCRASHVINIDLGWYQQKPGKAPKLLIYGASHLQRGVPSRFSGSGSGTVFTLTISGLQPEDFATYYCLQDSFYPRTFGQGTRLEIKR
B7: M0131-F09 (Fab, V domains shown)
VH: B4 VH with M33V, H35Q, K57S, P59T
VL: DIQMTQSPATLSLSPGERATLSCRASQSVSSYLAWYQQKPGQAPRLLIYDASNRATGIPARFSGSGSGTDFTLTISSLEPEDFAVYYCQQRSNWLWTFGQGTKVEIKR
B8: M0135-H01 (Fab, V domains shown)
VH: EVQLLESGGGLVQPGGSLRLSCAASGFTFSAYLMAWVRQAPGKGLEWVSSIRPSGGETRYADSVKGRFTISRDNSKNTLYLQMNSLRAEDTAVYYCTRDQKGYPDSSSFRRYYYYYGMDVWGQGTTVTVSS
VL: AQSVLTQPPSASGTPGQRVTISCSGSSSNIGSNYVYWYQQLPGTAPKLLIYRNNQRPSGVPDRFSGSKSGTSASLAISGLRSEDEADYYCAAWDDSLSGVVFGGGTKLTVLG
B9: M0111-D11 (Fab, V domains shown)
VH: EVQLLESGGGLVQPGGSLRLSCAASGFTFSWYAMMWVRQAPGKGLEWVSSIWPSGGHTKYADSVKGRFTISRDNSKNTLYLQMNSLRAEDTAVYYCATDQGYFWGQGTLVTVSS
VL: DIQMTQSPATLSLSPGDRATLSCRASQRVSSTFLAWYQQRPGQAPRLVIFGTSSRATGIPDRFSGSGSGTDFTLTISRLEPEDFAVYYCHQYGSSPRTFGQGTKVEIKR
B10: M0098-G05 (Fab, V domains shown)
VH: EVQLLESGGGLVQPGGSLRLSCAASGFTFSKYKMGWVRQAPGKGLEWVSYIRPSGGMTFYADSVKGRFTISRDNSKNTLYLQMNSLRAEDTAVYYCTREHYQASYSSSAWFRMVPAGAFDIWGQGTMVTVSS
VL: DIQMTQSPSSLSASVGDRVTITCRASQTISRYLNWYQQKPGTAPKLLIYAASSLQSGVPSRFSGDGSGTDFTLTISSLQPEDFGIYFCQQSYSAPRTFGQGTKVEIKR
B11: M0139-C02 (Fab, V domains shown)
VH: B10 VH with K31Y, G35H, Y50V, R52Y, M57K, F59T
VL: DIQMTQSPSSLSASVGDRVTITCRASQGIRRAWYQQKPGKPPKLLINDASSLESGVPSRFSGSGSGTDFTLTISSLQPEDFATYYCQQSYSTPPWTFGQGTKVEIKR
B12: M0110-F08 (Fab, V domains shown)
VH: EVQLLESGGGLVQPGGSLRLSCAASGFTFSNYVMYWVRQAPGKGLEWVSGIGPSGGFTTYADSVKGRFTISRDNSKNTLYLQMNSLRAEDTAVYYCTRDRYFGSGYYMAAYYYYGMDVWGQGTTVTVSS
VL: DIQMTQSPGTLSLSPGERATLSCRASQSVVSNFLAWYQQKPGQAPRLLIYGASSRATGIPDRFSGSGSGTDFILTISRLEPEDFAVYYCQQYGSSPYSFGQGTKLEIKR
B13: M0097-F03 (Fab, V domains shown)
VH: EVQLLESGGGLVQPGGSLRLSCAASGFTFSNYLMYWVRQAPGKGLEWVSSIRPSGGNTLYADSVKGRFTISRDNSKNTLYLQMNSLRAEDTAVYYCRRGILTGYYWGYYYYMDVWGKGTTVTVSS
VL: DIQMTQSPATLSVSPGGRATLSCRASQSVRKNVAWYQQKPGQPPRLLIYGASTRATGVPARFSGSGSGTEFTLTISRMQPEDFVVYHCQQYSSWPAFGQGTMVEINR
B14: M0102-E09 (Fab, V domains shown)
VH: EVQLLESGGGLVQPGGSLRLSCAASGFTFSLYLMEWVRQAPGKGLEWVSSIGSSGGATWYADSVKGRFTISRDNSKNTLYLQMNSLRAEDTAMYYCATDTSRVAGTRLRNYYYYYGMDVWGQGTTVTVSS
VL: DIQMTQSPDSLSLSPGERATLSCRASQSISSSYLAWYQQTPGQAPRLLIYHASSRATGVPARFSGSGSGTDFTLTISSLEPEDFAVYYCQQRNNWPPSFTFGGGTKVETKR
B15: M0106-G12 (Fab, V domains shown)
VH: EVQLLESGGGLVQPGGSLRLSCAASGFTFSWYRMHWVRQAPGKGLEWVSSIWPSGGKTHYADSVKGRFTISRDNSKNTLYLQMNSLRAEDTAVYYCARALQYGSGSYFYAPKSYYYYGMDVWGQGTTVTVSS
VL: DIQMTQSPSFVSASIGDRVTITCRASQSIGTLLNWYQHKPGTVPSLLIYGNLRGGVPARFSGSGSGTDFTLTISSLQPEDFATYYCQHDTFGGGTKVDIKR

Molecular target: T1, hK1 (human tissue kallikrein 1), recombinant (human, UniProt P06870 25-262)
T1 construct: Expressed in P. pastoris from KLK1 cDNA and purified; enzymatically active; also called KLK1; Recombinant (Pichia) Kallikrein
Experiment: SPR

Kd | koff | kon | Binder
2.41 nM | 0.00096 s⁻¹ | 399000 M⁻¹ s⁻¹ | B1
2.09 nM | 0.00069 s⁻¹ | 330000 M⁻¹ s⁻¹ | B2
1.71 nM | 0.000325 s⁻¹ | 190000 M⁻¹ s⁻¹ | B3
2.26 nM | 0.00138 s⁻¹ | 614000 M⁻¹ s⁻¹ | B4
2.26 nM | 0.000397 s⁻¹ | 176000 M⁻¹ s⁻¹ | B5
2.23 nM | 0.00107 s⁻¹ | 481000 M⁻¹ s⁻¹ | B6
2.36 nM | 0.000734 s⁻¹ | 311000 M⁻¹ s⁻¹ | B7
2.03 nM | 0.000396 s⁻¹ | 195000 M⁻¹ s⁻¹ | B8

Molecular target: T1, hK1 (human tissue kallikrein 1), …
Experiment: cell-based or functional assay

IC50 (nM), inhibition of hK1 enzyme activity | IC50 (nM), inhibition of hK1 hydrolysis of Pro-Phe-Arg-AMC | Binder
160 nM | – | B9
– | 4 nM | B10
– | 1 nM | B11
44 nM | – | B12
– | 1.1 nM | B13
– | 0.89 nM | B14
– | 5.1 nM | B15
